These are literature values, as cited in patent US20260109963A1, “COMPOSITIONS, SYSTEMS, AND METHODS FOR REDUCING ADIPOSE TISSUE” (Oisin Biotechnologies, Inc., priority 2023, published 2026).

The test system of the series is Heart. Particulars: almost completely abrogated after IV delivery.

B1: miR1d: miRNA/target site de-targeting heart & skeletal muscle (nucleic acid)
chain: GGCCGGCCAATACATACTTCTTTACATTCCACGATAATACATACTTCTTTACATTCCAACCGGTAATACATACTTCTTTACATTCCATCACAATACATACTTCTTTACATTCCAGGCCGGCC
modifications: listed as DNA, chemistry not fully specified; the letters are possibly those of the target site
notes: miRNA/target site de-targeting heart & skeletal muscle
Regarding B1, the “transgene expression in heart (in words)” value is given as “Transgene expression in heart almost”.
